Measured values reported in paper PMC3962550.

Biological target: epidermal growth factor (EGF) receptor expressed in 32D mouse myeloid cells (32D/EGFR) (UniProt P00533)

B1: amphiregulin (ligand)
chain: SVRVEQVVKPPQNKTESENTSDKPKRKKKGGKNGKNRRNRKKKNPCNAEFQNFCIHGECKYIEHLEAVTCKCQQEYFGERCGEKSMK
B1 was tested, and the EC50 of AR for IL3-independent proliferation of 32D/EGFR cells, without EGF was 8.3 nM.
